# Laboratory results published in the supplement of paper PMC7877785.
# ± gives the uncertainty stated by the source.
# Experiment: self-splicing fitness, log relative to wild type (ln ratio); higher = more splicing; Tetrahymena group I intron in knt gene, E. coli kanamycin selection, DiMSum; sequences stand for … in CUCUCU…GGAGGGAAAAGUUAUCAGGCAUGCACCUGGUAGCUAGUCUUUAAACCAAUAGAUUGCAUCGGUUUAAAAGGCAAGACCGUCAAAUUGCGGGAAAGGGGUCAACAGCCGUUCAGUACCAAGUCUCAGGGGAAACUUUGAGAUGGCCUUGCAAAGGGUAUGGUAAUAAGCUGACGGACAUGGUCCUAACCACGCAGCCAAGUCCUAAGUCAACAGAUCUUCUGUUGAUAUGGAUGCAGUUCACAGACUAAAUGUCGGUCGGGGAAGAUGUAUUCUUCUCAUAAGAUAUAGUCGGACCUCUCCUUAAUGGGAGCUAGCGGAUGAAGUGAUGCAACACUGGAGCCGCUGGGAACUAAUUUGUAUGCGAAAGUAUAUUGAUUAGUUUUGGAGUACUCGUGGUCG
# Procedure, shortened: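 Colonies from six replicate transformations of E. coli BL21(DE3) were pooled and amplicon-sequenced on an Illumina HiSeq 2500. The library placed an intron with all eight P1ex-region nucleotides randomised inside the knt kanamycin-resistance gene on pET-22b(+), and cells grew overnight at 37°C or 30°C on LB agar with or without 25 μg/mL kanamycin (plus 100 μg/mL carbenicillin, 50 μM IPTG, 0.2% rhamnose). Fitness is the DiMSum error-weighted combination of wild-type-normalised replicate fold changes, kanamycin versus none.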
Sequence,self-splicing fitness (ln) (30 °C),self-splicing fitness (ln) (37 °C)
GCUUAGCAAUAUUACGGCUG,-3.18 ± 0.28,-2.21 ± 0.28
ACGGAGCAAUAUUACGGAAG,-4.44 ± 0.46,-1.89 ± 0.46
ACUUAGCAAUAUUACGGGCG,-0.769 ± 0.078,-0.483 ± 0.085
GCUAAGCAAUAUUACGGGGU,-2.06 ± 0.18,-3.04 ± 0.25
CCGUAGCAAUAUUACGGGGG,-4.09 ± 0.24,-3.23 ± 0.26
CCUAAGCAAUAUUACGUCUG,-2.15 ± 0.2,-2 ± 0.24
UUAAAGCAAUAUUACGUGUU,-3 ± 0.13,-1.96 ± 0.16
UAUUAGCAAUAUUACGCAAA,-1.67 ± 0.3,-1.83 ± 0.27
ACUAAGCAAUAUUACGCCGA,-1.86 ± 0.18,-0.197 ± 0.16
AAAAAGCAAUAUUACGGUGA,-0.824 ± 0.058,-0.362 ± 0.064
ACCAAGCAAUAUUACGGGUA,-1.98 ± 0.091,-0.405 ± 0.072
UGCGAGCAAUAUUACGAGCG,-2.92 ± 0.33,-2.07 ± 0.3
AAUCAGCAAUAUUACGAGUG,-0.769 ± 0.053,-0.281 ± 0.08
CAGUAGCAAUAUUACGAGGG,-2.85 ± 0.13,-4.18 ± 0.46
UAAAAGCAAUAUUACGGUUG,-1.53 ± 0.075,-0.701 ± 0.096
GAUUAGCAAUAUUACGACAG,-3.57 ± 0.29,-1.1 ± 0.23
CGGUAGCAAUAUUACGGUUA,-2.23 ± 0.13,-1.3 ± 0.11
UCAAAGCAAUAUUACGGGCG,-0.842 ± 0.065,-0.266 ± 0.083
UAGAAGCAAUAUUACGUUUG,-2.32 ± 0.1,-0.879 ± 0.12
UCAUAGCAAUAUUACGGCCC,–,-1.11 ± 0.43
CAGCAGCAAUAUUACGGCUC,-0.127 ± 0.081,-0.486 ± 0.099
UCCAAGCAAUAUUACGCUUU,-3.8 ± 0.18,-2.16 ± 0.19
UUAGAGCAAUAUUACGAGAA,-1.75 ± 0.17,-0.981 ± 0.21
UCGCAGCAAUAUUACGCAGC,–,-2.1 ± 0.45
GUAAAGCAAUAUUACGGCAG,-1.5 ± 0.15,-2.25 ± 0.3

Sequence,self-splicing fitness (ln) (30 °C),self-splicing fitness (ln) (37 °C)
ACCAAGCAAUAUUACGUCUA,-1.29 ± 0.11,-0.982 ± 0.1
GGAGAGCAAUAUUACGGUUA,-3.19 ± 0.38,–
UGUAAGCAAUAUUACGCUCU,0.793 ± 0.47,-0.974 ± 0.45
CGGAAGCAAUAUUACGAAUU,-3.28 ± 0.36,-2.77 ± 0.44
AGUGAGCAAUAUUACGGGCA,-1.22 ± 0.3,-1.73 ± 0.15
UUCAAGCAAUAUUACGGCUA,-0.138 ± 0.094,-0.12 ± 0.087
UUGAAGCAAUAUUACGCAAG,-0.402 ± 0.099,0.251 ± 0.12
GCAUAGCAAUAUUACGCAUC,-3.1 ± 0.23,-3.22 ± 0.27
AGGGAGCAAUAUUACGGCAC,–,-1.77 ± 0.42
AUGGAGCAAUAUUACGGGUG,-3.75 ± 0.39,-2.18 ± 0.22
GAGAAGCAAUAUUACGCCCU,-0.493 ± 0.16,0.146 ± 0.18
AGCUAGCAAUAUUACGACAU,-0.509 ± 0.012,-0.147 ± 0.032
AACAAGCAAUAUUACGUGUC,-4.91 ± 0.21,-2.96 ± 0.095
GGCCAGCAAUAUUACGGGCA,-1.06 ± 0.07,-0.314 ± 0.079
CAGGAGCAAUAUUACGCCAU,-2.73 ± 0.33,-1.55 ± 0.41
GCUAAGCAAUAUUACGACUU,-0.326 ± 0.09,-0.0273 ± 0.098
GUAAAGCAAUAUUACGCCGU,-0.433 ± 0.085,0.561 ± 0.11
AAUAAGCAAUAUUACGGCAU,0.0296 ± 0.085,-0.0272 ± 0.097
ACCCAGCAAUAUUACGCGCG,-1.66 ± 0.077,-0.872 ± 0.097
CGUUAGCAAUAUUACGGGUC,-3.39 ± 0.41,-2.01 ± 0.24
CUGAAGCAAUAUUACGACUU,-3.13 ± 0.35,-1.75 ± 0.3
CGCAAGCAAUAUUACGCCGG,-0.626 ± 0.12,-0.476 ± 0.17
AUAGAGCAAUAUUACGCCUG,-0.827 ± 0.092,0.302 ± 0.15
UCGGAGCAAUAUUACGUUCG,-1.19 ± 0.17,-1.27 ± 0.27
GUUAAGCAAUAUUACGCUUA,-3.09 ± 0.26,-2.71 ± 0.25

Sequence,self-splicing fitness (ln) (30 °C),self-splicing fitness (ln) (37 °C)
UCCAAGCAAUAUUACGGGUA,-0.53 ± 0.062,0.199 ± 0.066
CCACAGCAAUAUUACGAGAC,-3.7 ± 0.2,-3.01 ± 0.23
AUCGAGCAAUAUUACGCAAG,-3.22 ± 0.43,-1.72 ± 0.26
UUACAGCAAUAUUACGUAAA,-1.59 ± 0.13,-0.34 ± 0.12
GCAAAGCAAUAUUACGGAAA,-1.88 ± 0.18,-1.66 ± 0.19
AGGAAGCAAUAUUACGAUUC,-1.41 ± 0.15,-2.53 ± 0.18
CCCUAGCAAUAUUACGAGUU,-2.39 ± 0.14,-3.11 ± 0.2
UCCUAGCAAUAUUACGAGAG,-3.57 ± 0.17,-2.51 ± 0.2
CUCGAGCAAUAUUACGCUGA,-2.4 ± 0.43,-0.491 ± 0.3
GAUGAGCAAUAUUACGGAUU,-3.44 ± 0.44,-1.68 ± 0.2
GAAUAGCAAUAUUACGCCUU,-0.0381 ± 0.072,0.111 ± 0.081
UGGAAGCAAUAUUACGAAGC,-3.64 ± 0.35,-2.35 ± 0.36
GAGUAGCAAUAUUACGCACA,-0.806 ± 0.14,-0.0514 ± 0.18
CUUCAGCAAUAUUACGCCAU,-4.2 ± 0.3,-2.02 ± 0.23
UCUCAGCAAUAUUACGCAUG,–,-1.04 ± 0.45
GACCAGCAAUAUUACGACAU,-0.634 ± 0.011,-0.0858 ± 0.032
GUUAAGCAAUAUUACGCUCA,-0.759 ± 0.1,0.0333 ± 0.13
ACACAGCAAUAUUACGCCUA,-0.959 ± 0.065,-0.392 ± 0.067
GAAGAGCAAUAUUACGAAUC,-3.48 ± 0.22,-1.91 ± 0.15
AACCAGCAAUAUUACGCUUA,-0.415 ± 0.046,-0.0597 ± 0.055
GUCAAGCAAUAUUACGCUGG,-4.08 ± 0.28,-3.72 ± 0.29
GGGAAGCAAUAUUACGAGGG,-4.09 ± 0.24,-2.67 ± 0.19
CGCAAGCAAUAUUACGCGCG,-3.11 ± 0.12,-2.51 ± 0.16
GAAGAGCAAUAUUACGACGG,-2.5 ± 0.37,-2.67 ± 0.48
AUAAAGCAAUAUUACGGUUA,0.442 ± 0.078,0.534 ± 0.09

Sequence,self-splicing fitness (ln) (30 °C),self-splicing fitness (ln) (37 °C)
GAUCAGCAAUAUUACGUUUA,-0.394 ± 0.084,0.0451 ± 0.095
CGCCAGCAAUAUUACGUGCC,-1.13 ± 0.091,-0.673 ± 0.11
UCUUAGCAAUAUUACGAUGG,-0.765 ± 0.15,0.551 ± 0.15
UCUCAGCAAUAUUACGUCUC,-4.6 ± 0.31,-3 ± 0.23
AGACAGCAAUAUUACGAUGC,-3.36 ± 0.23,-2.33 ± 0.19
CCAUAGCAAUAUUACGGUUG,-1.43 ± 0.082,-0.827 ± 0.12
GUGUAGCAAUAUUACGGCAG,–,-0.824 ± 0.23
AGAGAGCAAUAUUACGGGAC,–,-2.61 ± 0.44
UACUAGCAAUAUUACGAAAG,-2.94 ± 0.11,-1.93 ± 0.13
GUGUAGCAAUAUUACGGAAU,-1.42 ± 0.13,-1.64 ± 0.25
AGUCAGCAAUAUUACGUCCC,-1.52 ± 0.22,0.485 ± 0.27
GGAUAGCAAUAUUACGGACG,-0.899 ± 0.13,-0.693 ± 0.17
CAGCAGCAAUAUUACGGCGU,-1.61 ± 0.07,-0.859 ± 0.08
ACGAAGCAAUAUUACGCCUC,-2.93 ± 0.31,-1.77 ± 0.47
UCAUAGCAAUAUUACGAACG,-0.967 ± 0.085,-0.602 ± 0.12
AUAAAGCAAUAUUACGGCUG,0.334 ± 0.069,0.483 ± 0.1
GUAGAGCAAUAUUACGAAAC,0.2 ± 0.34,-0.546 ± 0.32
AACGAGCAAUAUUACGCGAA,-4 ± 0.29,-2.96 ± 0.28
AUGGAGCAAUAUUACGCCGG,-2.78 ± 0.46,–
CGGAAGCAAUAUUACGUUUC,-4.04 ± 0.29,-2.69 ± 0.23
CACCAGCAAUAUUACGUCUU,-3.59 ± 0.12,-2.64 ± 0.15
AAUCAGCAAUAUUACGGUGC,-0.892 ± 0.072,-0.189 ± 0.082
UGAGAGCAAUAUUACGCGGU,–,-0.929 ± 0.39
